The data set is described as follows: label from the status in PepcDB records.

Our source for the protein production values is a protein production outcome set (Wang et al. 2014).
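Also: failed if final PepcDB status was selected cloned or expressed and not failed if soluble or beyond.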

“MTKNEEGRVRRFVIRYVGSGRVPPCWIAGIFALCWGGVALAGGVALQSVDFTALPSENFQLRLGFDGPVPEPRSFTTEHPARIALDLAGVRSDLDKKPIPVHQAGVETVQAIAAGGRTRVILNLATAVPYTTRVAGRFLYVTLQSGKAGSRADDSASAPVVVTERPVVGGPQVESIDFRRGEKGEGRLLVALSDPNSLINLREEGRSVVADLPGTSLPGRLARRLEVIDFATPVKWVEAMPVGRGARLLITPVSDEYDYSSYQSGKLLTVELRPLSRAEKEEAKKRRLVFAGERLSLNFQDIPVRNVLQILADFTNLNIVASDSVQGSVTLRLNEVPWDEALDLVLKAKGLGKRQEANSNVIRVAPLDEINRSERDELEALKVVEDLEPLRTEIIQINYTKADDIKKVIMGTTEKAEKAITRPEALTGGPGVTSTEAYDVTQSILSSRGNVTTDPRTNQLIVQDTPRNLERIRDLVRQLDKPVRQVMIESRVVIANVDFLRELGAKLDFRPKNLTAAERLNPTGSMADLGVDLAKLTTLSPYGTAQYVVSMGDYLLDLELSAAQKEGRGEIVANPRVLTADQSKAKIMQGVELPYQITQQGTGGGIPVQNVAFKPAVLELDVTPHITPDDHILMDLMVKKDDKGELAPNGNFAIEKREIDTVAQVANGETVVLGGVYEGTRRNNTDKVPFFGDLPGIGFMFRRNAVEDRKKELLIFITPKIVKQTSMTP”: the protein production result is “failed”.
Turning to “MTKNTRFSPEVRQRAVRMVLESQGEYDSQWATICSIAPKIGCTPETLRVWVRQHERDTGGGDGGLTTAERQRLKEPERENRELRRSNDILRQASAYFAKAEFDRLWKK”, the protein production result is “failed”.
The result for “MTKQSKTQIRICFVGDSFVNGTGDPECLGWTGRVCVNANKKGYDVTYYNLGIRRDTSSDIAKRWLQEVSLRLHKEYNSLVVFSFGLNDTTLENGKPRVSIAETIKNTREILTQAKKLYPVLMISPAPYIEQQDPGRRRRTIDLSQQLALVCQDLDVPYLDVFPLLEKPSVWLHEAKANDGVHPQAGGYTEFARIVENWDAWLNWFR” reads “not failed”; that for “MTKRHVSLPADAKDVRRAFVSGVDERLSAAETPDELATAVTGTLADLRGERDAYEAWRDGDDVRPAAAARLATLDPRNASLESEYYAEKDEAAFARSKPLQWLWRQFDTTPLADNVDVALPFRRMLAGHLFAGVGEDVRLFKGITMTYGHNIELGDNAVVHDGVHLDDRGELVVGARASVSNGAHLYTHDHDVVDQTDVTNYRTEIGADARVTQGALVRAGVRVGENALVGSRSVVQGDVPAHHIAVGSPAESVRVKPGWEAVAAPLDAGLEHHHHHH”, “not failed”.
With “MTKSPARLISFISIAIAINLVGANLALFLRLPIYLDTIGTLLIAVILGPWYAASTAFLSALINWMTTDIFSLYYSPVAIVVAIITGILIKRNCKPSSLLWKSLIISLPGTIIASVITVILFKGITSSGSSIIAQFLHGIGLDMTSSLILVQVGTDYMDRLISLILVFSTITLLKKHSPNLINQRF”, the protein production result was “failed”.
Then “MTKTLRTPEHVYLCQRLRQARLDAGLTQADLAERLDKPQSFVAKVETRERRLDVIEFAKWMAACEGLDVVSEIVATIAEGRAQA”, with “not failed”.
Then “MTKVIVVNGPNLGRLGVRQPDVYGRQDLDTLRKLCAEWGKDLGLEVEVRQTDDEAEMVRWMHQAADEKTPVVMNPAAFTHYSYALADAAHMVIDENLPLMEVHISNPSARDEFRKRSVISPVATGTITGMGFYGYKLALDAVAHLLSE”, with “not failed”; and “MTKVLFVKANNRPAEQAVSVKLYEAFLASYKEAHPNDTVVELDLYKEELPYVGVDMINGTFKAGKGFDLTEEEAKAVAVADKYLNQFLEADKVVFGFPLWNLTIPAVLHTYIDYLNRAGKTFKYTPEGPVGLIGDKKIALLNARGGVYSEGPAAEVEMAVKYVASMMGFFGATNMETVVIEGHNQFPDKAEEIITAGLEEAAKVANKF”, with “not failed”.
Then “MTLAACMQEADQLQHWREKCWRPFFRVDEEILNIHNEQLGINEDHLHGAQSIHVASNIRARKVFEFPYLQTSMKPEDAGVDAILSKFNIMIYSYKDAAYPFRMVPPIVYAHLAILRVNAGDLTSSDTWRLYM”, with “failed”.
Consider “MTLDANSAPVRDMASAHFSPGEDCRRKIRDLCRQARISVDICVFTISDDQLSDEIRACHQRGVAVRVISDSEKQFDVGSDIAALREAGVPVRIDDTPFHMHHKFAVFDGRTLLNGSFNWTRSATTGNEENLLVIDHPQLVASYLKEFNELWSRYAPRLEHHHHHH”, for which the protein production entry is “failed”.
The result for “MTLEKKEYGAPGFWPGSMIGRVHAFETPAPLTRAQLDRLRDEFFETRTEGHLEIWTAIRAASHAQEAGDDELAYAIITAVGILPAEVGPAGEGLGERIPFAEQPLDRLLGMICGCCFPAFTRYRTLERVYDQRGFLYETPKECIATPSNVLPDESTEASAR” reads “not failed”.
Regarding “MTLETISSLLPMSAAGLAAVVSALAALGLGLGLWCARHRLRLLTAALEASGCGLITIEGGTRVFQANRQAARLLGRPEGLARDTQARKLFGGTLTAAVQGPGDGQPVRGTAHRPDHGWFPATLQSLGPCGGFARQRRLWLLRDLSDAQELERLRETEERFNASQRFGRIGVWDWNTETNEVFWSEEVFPMFGFTPAEITPTYDLFIAMVHPDDFVALTDSERACLSGTTLHDQEYRVIWRDGSVHWIRETADVLRESDGTPRRMVGVIREVTEEKEAQRQALRIAMLDPLTGLPNRATFLERLEADLGQVDETGVAVPLALAFIDLDDFKPINDTYGHLMGDRVLMTIAKRLSEAVRPQDMVARVGGDEFVALLRGCRDGARARTVAARLLDAVTAPVSIDTVIHRVRASIGISLYPSLVSTGDDLIATADQAMYVAKRAGGDPIRLHGE”, the protein production entry is recorded as “failed”.
Turning to “MTLHLPGADGTLRAYEPRTEPLPTLRATSGSAFSSRTVFSAAHVVADPYADTTPDGPAAVDWDATLAFRRHLWSHGLGVAEAMDTAQRGMGLDWPTAAELIRRSAAEARATGGRIACGVGTDQLTATAATLADVRSAYEEQLAVVEESGAQAILMASRALAATAKGPDDYLEVYGHLLRQAAEPVILHWLGPMFDPALEGYWGSSDLDAATDTFLEVIAAHPDKVDGIKVSLLDAQREIDLRRRLPRGVRCYTGDDFNYPELIAGDEQGFSHALLGIFDPLGPLAAEAVRVLDTGDTDGFRALLDPTVELSRHLFRAPTRYYKTGVVFLAWLAGHQSHFTMVGGLQSARSLPHLARAYELADGLGLFPDPKPAEERMRNLLALYGVNA”, the protein production result is recorded as “failed”.
Then “MTLKLKDKNTMLNSEKMVASIEKQDLHHADKYLKKALNEDPAEVLVELAEYLESIGFLPQAQEIYEKVRFDFPEVNVNLAQIAAEDGNIEEAFLYLDAIPEESEDYLSALIVKADLYQMEGLTDVARDKLLEASQLSDDSLIIFGLAEMEFELGNFEQAIQYYAKLDNRDLLATTGVSTYERIGKSYASLGKFEAAREFLEKAIEIEYNDTIAFELATLLYDQEEYQKANFYFKQIETMSSDFEGYEYNYALSLHAEHRTEEALRMTQQGISKNAFDVQLLLLASQLSYELHDTQSAESYLKQALPLAEDNDEIVLRLSALYLEEERFDDLVALADYEVDSVLARWNIARAYQALDDEEEAFQIYQDLSKDLADNPEFLQDYAYILREFGYRDQARVTAEKYLALVPDDVNMQTFLEDY”, with “failed”; and “MTLLDSMIVMIYLLFIGIAAWLFRRFSTSSNDFLQGGGTMMWWMAGATAFMTQFSAWTFTGAAAKAYEDGISVMFIFWGNALGFFVAAAFFARRYRRLRVETAMEVIRVRFGHTSEQLFTWLSFPLTLIACAIWMNGLASFFSAVFAIEMSTTILAMGVIVTLIAVSGGAWTVSVTNVIQLVLLIAITLVIGYTALQHFDSPSEVFAYTTPIYGEQIRMPSLFVMWAIAMLLQQTMSNNHTLSCYRFLTTANDKDATKAAFVAGVLFVFAPVLWFMPAWFVAAQNIDLLAIYPALEQSANNAAYLYYIQHYMPQGLLGLVMVALVAATIAPLSSAHNRNAGIVVKSLYQVWFNPNATSRQQLMVGKIATIVSGILATVTALLLASVESYSLFDMMIVFAAFIQMPINIPSLLALVSLKTPNWSGWATVMVGCVVSLFMMFIFDVQWISSSPLTPRESKDLSVVATLAVHLLVTGGFFLSTRVFYAKESPSIQQSRTALSIQLATPISDEELSPINHKQGLYVGSITALAGMLLILAGVVLAGSSQSIFVAIGCIVLLFSLFLLQPTLHSKRAWQKQKTK”, with “failed”; and “MTLLFRYLFRNNLQVILPTLAVGTGLYLLSDLFDRLDDILEAGVPGNVAIWYFVAKTPLIISQILPAVFLLAALIQLCLMSRDRELMALQAGGVSFGAIARFFVVYGLLWAVLQLGFSQVLGVAGERESARIWQEQVRGRTPGTRDLTNVWFTDDNHVIHLEVVTPALRKGQGFAAYGLAADGIHIDTVIRAKAFTGTAGTWKLQDVEVFSTRDFGHAKLPEMSIAIGQDPQDFAVIDPGADPQRLPLWQLGDAVEKLRTAGSNVEGLRTAWHMKLAYAASLVVMGLLAVAMVTWRDNIYLATGLALVFTFLFYTMFTIGSTLGQKGIVSPPIAAWGADILVGVVASARLLLVLRPRSLR”, with “failed”.
Turning to “MTLLNDIQVWTTACAYDHLIPGRGVGVLLDDGSQVALFRLDDGSVHAVGNVDPFSGAAVMSRGIVGDRGGRAMVQSPILKQAFALDDGSCLDDPRVSVPVYPARVTPEGRIQVARVAV”, the protein production entry is “failed”.
As for “MTLNIYTEEWAPISFSVDGKPDGLAVQVVQEIQKRIDNQDPIKVVPWARGWKIITEQPNTVLFTMTRTAERERMFSLIGPVAVGTTNFYALKNSNLEHHHHHH”, the protein production entry was “failed”.
For “MTLPAPWRVRHLPLLLLLLAAPLLALANSDPLPSWKDGPSKQGILAFVQAVTTQGSPDYVKAAERIAVFDNDGTLWSEQPAYFEVLFAFDEIKRLAPQHPEWKTRQPFQAVLEGDHQALAASGMHGLLQIIGATHTGISSEAFIDNARRWLAEARHPKTGRPFNQMIYQPMLEMLDYLRSQDFKTYIVSGGDTAFMRAFAESAYGIPPEQVIGSNFVTQWQFQDGQPSILRTAKLAHNDDGPGKPESIDGIIGRRPLLAFGNSDGDLQMLQWTAAGSGKRFMALVHHTDAAREWAYDRKSQVGRLDQALDQAQQHGWTLVDMAAEWRRIYPFEPLAPEQAQ”, the protein production entry is “failed”.
Then “MTLPIPSSPPRIKINLPCFQYVGTEMSVDIITSIWFMTLTEFATFMPKRDMCPKPASIPPAAPTVENTVPTTIPQINRRSSITSSSSTTVDNFVIKIYQVYRRMQTLTLEISTTKRSVLNKLKRASLTFQQFKNLLYLCLLEYYKNTKDVKPFLSVSFLEKFVKGKENLPFENEKIKSYREKLKELWEKEIGSDTVKALARQVSKEVKSVLEKWKKGERAFLPRPRKLKKVHKFTVPTNPNMLVDKRKLKRRRENSIVVRLGISFGAVKVKIPQGINIRDVKITWYEDTEVIFRISYEVPKAQKELLKEKWLSIDLGVRNLVSCISNDENLRSFIVDGNPLKSFNQWVNKLSAKLRSEGKERLERKLWRYRKKRIKGFFHQVANLIVRVCLERGIGRVIIPNSLNEEYQKDSEKGARFNQEFRFIPLGELVKMIEYKCELCGIEVVKEDESWTSKVSSVSGNIEVLKEEIPEGEVKKLKFEGRRIKRGLFRDRRLKKVFNADLNGALNLAIKALGKKVREEFLSLRNWLDKLSRPVKVNLFRYPASLPVLWEIAGSKSCSPKGDSEGHFAGSVSDLITFAHF”, with “failed”.
Turning to “MTLSAIQPNDMALYHYDSCPFCAKTRHAINELDLNIELRNIQKNHQHRIELQQGGNKTQVPCLRIGQSNGKAQWLYESGDIINFLRNRK”, the protein production entry was “failed”.
Then “MTLSKRLALLGAQSAITLAKPRGLGSSLGLLDRRPFPYRQFSELTKANGRRAFLVDTLALVRSLEAQGVPSKQAEAITSAITEVLNDSLENVSESFVSKAEMQKIEMIQDSNLSKFKSEVKSSQVTSTLVV”, with “failed”; and “MTLTLGEFIKILEATGYPVAYSHFTATPGNPVPAPPYICFLVDGSANLMADNKVYHKINDVNIELYTTKKDLVAEAKLEQVLDDHEIPYGSYGTFIESENMYQKFYETRLI”, with “failed”.
